Measured values as given in patent US20020122799A1 (published 2002).

Experiments:
macrophage (MP) RAGE = target: T1, macrophage (MP) RAGE; test: binding to macrophages in culture wells
T1 construct: whole, on cells; also called RAGE on macrophages

mutant human RAGE (82S) [1] = target: T2, mutant human RAGE (82S) (human, UniProt Q15109 23-404); test: radioligand binding to stably transfected CHO cells expressing human RAGE (82S), Klotz-Hunston fit
T2 construct: whole, on cells; Position 82 counts on the precursor with leader; also called RAGE (G82S); RAGE (S82S)
T2 sequence (Q15109 other isoform, or with tags, fused parts or gaps mutant): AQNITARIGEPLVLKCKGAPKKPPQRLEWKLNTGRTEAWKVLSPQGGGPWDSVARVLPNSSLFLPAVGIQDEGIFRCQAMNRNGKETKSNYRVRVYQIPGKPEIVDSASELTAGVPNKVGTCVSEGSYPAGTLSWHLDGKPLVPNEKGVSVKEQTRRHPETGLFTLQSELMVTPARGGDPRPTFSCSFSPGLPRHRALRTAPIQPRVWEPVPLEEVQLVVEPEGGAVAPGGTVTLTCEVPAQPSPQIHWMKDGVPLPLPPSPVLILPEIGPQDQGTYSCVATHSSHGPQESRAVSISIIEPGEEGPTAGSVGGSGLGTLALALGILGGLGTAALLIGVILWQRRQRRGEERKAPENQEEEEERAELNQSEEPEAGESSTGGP
Protocol: (§1) FIG. 11A. Immunoblotting. Lysates of stably-transfected CHO cells were prepared and subjected to immunoblotting using anti-human RAGE IgG (2 μg/ml). FIGS. 11B-C. Radioligand binding assays. Purified EN-RAGE was radiolabelled using ¹²⁵-I and radioligand binding assays were performed in 96-well tissue culture dishes containing the indicated transfected CHO cells. Assays were performed in the presence of the indicated concentration of radiolabelled EN-RAGE±an 50-fold molar excess of unlabeled EN-RAGE. Elution of bound material was performed in a solution containing heparin. Equilibrium binding data were analyzed according to the equation of Klotz and Hunston. Where indicated, pretreatment with either antibodies (70 μg/ml), human soluble RAGE or bovine serum albumin (50-fold molar excess) was performed. The mean±standard deviation (SD) is shown. In FIG. 11C, * indicates p<0.01 versus respective controls. FIG. 11D. Activation of p44/p42 MAP kinases. The indicated stably-transfected CHO cells were incubated with EN-RAGE, 10 μg/ml, for one hr. Cell lysates were subjected to SDS-PAGE and transfer of the gels' contents to nitrocellulose. Immunblotting was performed using anti-phosphorylated p44/p42 MAP kinase (1 μg/ml). […] In FIGS. 11D-11E, bands were scanned into a densitometer, and band density was quantified using ImageQuant. […]

mutant human RAGE (82S) [2] = target: T2, mutant human RAGE (82S); test: cell-based or functional assay
[3] = target: T3, wild-type human RAGE (Receptor for Advanced Glycation Endproducts) (human, UniProt Q15109 23-404); test: cell-based or functional assay
T3 sequence (Q15109 23-404): as the sequence (Q15109 other isoform, or with tags, fused parts or gaps mutant) above, with S60G counted along it

[4] = target: T3, wild-type human RAGE (Receptor for …); test: radioligand binding to stably transfected CHO cells expressing wild-type human RAGE, Klotz-Hunston fit
Protocol: as §1

[5] = target: T3, wild-type human RAGE (Receptor for …); test: binding to endothelial cells in culture wells
immobilized RAGE = immobilized RAGE (Homo sapiens (Human), UniProt Q15109 23-342); test: binding to RAGE immobilized in culture wells
Sequence of immobilized RAGE (Q15109 23-342 limits assumed, form in doubt): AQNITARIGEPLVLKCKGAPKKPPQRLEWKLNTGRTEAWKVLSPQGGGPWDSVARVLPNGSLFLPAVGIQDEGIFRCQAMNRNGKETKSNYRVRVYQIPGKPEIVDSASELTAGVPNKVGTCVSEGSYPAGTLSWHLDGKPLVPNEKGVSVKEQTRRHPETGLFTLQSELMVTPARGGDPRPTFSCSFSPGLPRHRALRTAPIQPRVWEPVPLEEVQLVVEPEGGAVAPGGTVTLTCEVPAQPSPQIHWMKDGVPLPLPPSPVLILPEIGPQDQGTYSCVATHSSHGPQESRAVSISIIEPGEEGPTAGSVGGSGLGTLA

B1: EN-RAGE (Extracellular Novel RAGE binding protein) (ligand, bovine, UniProt P79105 2-92, looked up)
chain: TKLEDHLEGIINIFHQYSVRVGHFDTLNKRELKQLITKELPKTLQNTKDQPTIDKIFQDLDADKDGAVSFEEFVVLVSRVLKTAHIDIHKE
modifications: radiolabelled with 125-I (Iodobeads) in the radioligand binding assays
notes: mature; also called S100A12
Kd (macrophage (MP) RAGE): ~75 nM
Kd (mutant human RAGE (82S) [1]): ~77 nM
IL-6, mutant RAGE against wild-type MPs (mutant human RAGE (82S) [2]): ~7.3 fold
MMP-9 activity (zymography) of human MPs (mutant human RAGE (82S) [2]): ~4.7 fold
MMP-9 activity, mutant RAGE allele against wild-type receptor MPs (mutant human RAGE (82S) [2]): ~2 fold
NF-kB gel shift band (EMSA) in CHO transfectants (mutant human RAGE (82S) [2]): ~11.3 fold
NF-κB activation, mutant against wild-type receptor (mutant human RAGE (82S) [2]): ~2.1 fold
TNF-alpha, RAGE (G82S)/(S82S) against wild-type RAGE MPs (mutant human RAGE (82S) [2]): ~4.5 fold
elaborated TNF-alpha by human MPs (mutant human RAGE (82S) [2]): ~17.8 fold
generation of IL-6 by human MPs (mutant human RAGE (82S) [2]): ~10.9 fold
phosphorylated p44/42 MAP kinases in CHO transfectants (mutant human RAGE (82S) [2]): ~3.9 fold
phosphorylated p44 and p42 MAP kinases in human MPs (mutant human RAGE (82S) [2]): ~4.8 fold
MMP-9 activity (zymography) of human MPs [3]: ~2.3 fold
NF-kB nuclear binding activity (EMSA) in CHO transfectants [3]: ~5.4 fold
activation of p44/p42 MAP kinases in human MPs [3]: ~2.2 fold
adhesion of Molt-4 cells to cultured ECs [3]: 7 fold
expression of cell-surface VCAM-1 on cultured ECs [3]: 4.3 fold
generation of IL-6 by human MPs [3]: ~1.5 fold
generation of TNF-alpha by human MPs [3]: ~4 fold
phosphorylated p44/42 MAP kinases in CHO transfectants [3]: ~2 fold
Kd [4]: ~122 nM
Kd [5]: ~75 nM
Kd (immobilized RAGE): ~75 nM
